Results from paper PMC9989928.

Tests used:
Settings in all cases: glycan lost; control: wild-type VMO1-myc-his6
[1] = anti-myc western blot of total cell lysates
[2] = cycloheximide chase, western blot of lysates
[3] = anti-myc western blot of conditioned media

B1: vitelline membrane outer layer protein 1 homolog (VMO1): W105F (protein)
parent chain: MERGAGAKLLPLLLLLRATGFTCAQTDGRNGYTAVIEVTSGGPWGDWAWPEMCPDGFFASGFSLKVEPPQGIPGDDTALNGIRLHCARGNVLGNTHVVESQSGSWGEWSEPLWCRGGAYLVAFSLRVEAPTTLGDNTAANNVRFRCSDGEELQGPGLSWGDFGDWSDHCPKGACGLQTKIQGPRGLGDDTALNDARLFCCRS
Q: For B1, which expression_or_secretion [1] is on record?
A: increases

Q: And the degradation_or_half_life [2]?
A: increases

Q: And the expression_or_secretion [3]?
A: no change
